In publication doi:10.1101/2024.07.31.606116:
Blank lines part the entries; values can stand above or below the substance they belong to.

Legend:
[1] = biological target: RAMP2 ECD-CTR ECD fusion protein (human) (UniProt O60895); assay: fluorescence polarisation
[2] = biological target: RAMP3 ECD-CTR ECD fusion protein (human) (UniProt O60896); assay: fluorescence polarisation
[3] = biological target: RAMP1 ECD-CTR ECD fusion protein (human) (UniProt O60894); assay: fluorescence polarisation
[4] = biological target: calcitonin receptor (CTR) extracellular domain (ECD) (human); assay: fluorescence polarisation
[5] = biological target: full-length human calcitonin receptor C-terminally tagged with NanoLuc luciferase (human) (UniProt P30988)
UniProt P30988, sequence (P30988 25-474): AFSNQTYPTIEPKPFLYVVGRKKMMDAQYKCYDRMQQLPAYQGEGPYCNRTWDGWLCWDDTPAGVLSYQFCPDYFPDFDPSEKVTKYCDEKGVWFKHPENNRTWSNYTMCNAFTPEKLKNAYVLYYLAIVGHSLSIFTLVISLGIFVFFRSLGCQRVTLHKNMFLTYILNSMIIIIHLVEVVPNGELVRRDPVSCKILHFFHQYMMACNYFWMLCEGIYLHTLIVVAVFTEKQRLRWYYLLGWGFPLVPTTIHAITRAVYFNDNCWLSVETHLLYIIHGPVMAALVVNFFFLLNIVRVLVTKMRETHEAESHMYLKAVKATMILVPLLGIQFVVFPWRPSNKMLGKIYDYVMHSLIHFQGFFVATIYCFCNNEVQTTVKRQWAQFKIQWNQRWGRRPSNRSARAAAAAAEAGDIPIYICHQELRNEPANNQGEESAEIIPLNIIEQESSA

[6] = biological target: amylin receptor ECDs; assay: fluorescence polarisation

UniProt O60894, sequence (O60894 whole entry, the tested form may be a part): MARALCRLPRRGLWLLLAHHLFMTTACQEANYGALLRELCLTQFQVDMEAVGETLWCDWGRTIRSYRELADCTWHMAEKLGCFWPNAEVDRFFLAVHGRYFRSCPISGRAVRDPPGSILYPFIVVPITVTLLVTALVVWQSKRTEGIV
UniProt O60896, sequence (O60896 whole entry, the tested form may be a part): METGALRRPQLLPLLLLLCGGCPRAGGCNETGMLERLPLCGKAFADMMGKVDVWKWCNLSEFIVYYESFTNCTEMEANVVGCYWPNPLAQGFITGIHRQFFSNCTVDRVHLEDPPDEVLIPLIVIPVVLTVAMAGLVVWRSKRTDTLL
UniProt O60895, sequence (O60895 whole entry, looked up, the tested form may be a part): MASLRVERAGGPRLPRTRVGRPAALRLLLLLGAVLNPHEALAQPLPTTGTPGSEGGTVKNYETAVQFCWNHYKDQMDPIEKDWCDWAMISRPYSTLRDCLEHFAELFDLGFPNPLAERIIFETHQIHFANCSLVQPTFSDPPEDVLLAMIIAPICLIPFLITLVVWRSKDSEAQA

EC50 of receptor activation (mini-Gs recruitment BRET, HEK293T cells) [5]: 72 nM
Substance: pramlintide (peptide)

fold increase in affinity over rat amylin(27–37) L27Y/Y37P [3]: 4 fold
Substance: rat amylin(27–37) L27Y/Y37P plus P29R (peptide)

fold increase in affinity over rat amylin(27–37) L27Y/Y37P [3]: 2.5 fold
Substance: rat amylin(27–37) L27Y/Y37P plus S34A (peptide)

fold decrease in affinity against the peptide with S34P [3]: 9 fold
Substance: rat amylin(27–37) L27Y/Y37P plus S34HYP (hydroxyproline) (peptide)

fold increase in affinity over rat amylin(27–37) L27Y/Y37P [3]: 3.6 fold
Substance: rat amylin(27–37) L27Y/Y37P plus S34P (peptide)

Second part, the substance before the results:

Substance: FITC-labeled AC413(6–25) with Y25P mutation (peptide)
Kd [1]: 67 nM
Kd [2]: 252 nM
Kd [3]: 77 nM

Substance: FITC-labeled salmon calcitonin (sCT) fragment(22–32) (peptide)
Kd [4]: 500 nM

Substance: rat amylin(27–37) L27W/Y37P (peptide)
fold increase in affinity over rat amylin(27–37) L27Y/Y37P [3]: 2 fold

Substance: rat amylin(27–37) L27Y/Y37P plus P29K (peptide)
fold increase in affinity over rat amylin(27–37) L27Y/Y37P [3]: 4 fold

Substance: rat amylin(27–37) with L27Y and Y37P double mutations (peptide)
Ki [6]: 4000 to 11000 nM

Substance: rat amylin(27–37) with Y37HYP (hydroxyproline) mutation (peptide)
fold increase in affinity over rat amylin(27–37) Y37P [2]: 3 fold
fold increase in affinity over rat amylin(27–37) Y37P [3]: 5 fold
